Reference: patent US20210340217A1, “NOVEL PEPTIDES AND COMBINATION OF PEPTIDES FOR USE IN IMMUNOTHERAPY AGAINST OVARIAN CANCER AND OTHER CANCERS” (Immatics Biotechnologies GmbH, priority 2017, published 2021)

These substances were tested against HLA-A*03:01 (Homo sapiens, UniProt P04439) (assay: MHC binding assay (UV-ligand exchange, beta2m ELISA)). Conditions: peptide exchange yield.
In short: (§1)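 Peptide–MHC complexes formed by UV-induced exchange of a UV-cleavable peptide for the test peptide. Exchange yield measured by streptavidin-capture ELISA detecting β2m (HRP anti-β2m, TMB, A450) on 100-fold diluted samples. Quantified against refolded HLA-A*02:01/MLA-001 standards (15-500 ng/ml).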

Substance | Peptide exchange
93 (KILEEHTNK; listed as Homo sapiens) [compound 93] | ++ (>20% = ++)
258 (GAYAHTVNR; listed as Homo sapiens) [compound 258] | +++ (>50 = +++)
275 (STTFPTLTK; listed as Homo sapiens) [compound 275] | ++ (>20% = ++)
279 (SVSSETTKIKR; listed as Homo sapiens) [compound 279] | ++ (>20% = ++)
265 (QIHDHVNPK; listed as Homo sapiens) [compound 265] | ++ (>20% = ++)
278 (NLSSITHER; listed as Homo sapiens) [compound 278] | ++ (>20% = ++)
277 (TTALKTTSR; listed as Homo sapiens) [compound 277] | + (>10% = +)
27 (VLYGPAGLGK; listed as Homo sapiens) [compound 27] | +++ (>50 = +++)
105 (RLFSWLVNR; listed as Homo sapiens) [compound 105] | +++ (>50 = +++)
91 (RSLRYYYEK; listed as Homo sapiens) [compound 91] | ++ (>20% = ++)
280 (SVSGVKTTF; listed as Homo sapiens) [compound 280] | ++ (>20% = ++)
89 (RVAELLLLH; listed as Homo sapiens) [compound 89] | ++ (>20% = ++)
106 (AAFVPLLLK; listed as Homo sapiens) [compound 106] | ++ (>20% = ++)
262 (RSRLNPLVQR; listed as Homo sapiens) [compound 262] | ++ (>20% = ++)
266 (ISYSGQFLVK; listed as Homo sapiens) [compound 266] | +++ (>50 = +++)
25 (GTSPPSVEK; listed as Homo sapiens) [compound 25] | ++ (>20% = ++)
109 (KTFTIKRFLAK; listed as Homo sapiens) [compound 109] | ++ (>20% = ++)
283 (IVQEPTEEK; listed as Homo sapiens) [compound 283] | ++ (>20% = ++)
100 (RLFTSPIMTK; listed as Homo sapiens) [compound 100] | +++ (>50 = +++)
281 (RAKELEATF; listed as Homo sapiens) [compound 281] | + (>10% = +)
88 (VVHAVFALK; listed as Homo sapiens) [compound 88] | +++ (>50 = +++)

Substance | Peptide exchange
274 (KTFPASTVF; listed as Homo sapiens) [compound 274] | + (>10% = +)
110 (SAAPPSYFR; listed as Homo sapiens) [compound 110] | ++ (>20% = ++)
270 (AVFNPRFYRTY; listed as Homo sapiens) [compound 270] | ++ (>20% = ++)
86 (VVLLGSLFSRK; listed as Homo sapiens) [compound 86] | ++ (>20% = ++)
20 (RMASPVNVK; listed as Homo sapiens) [compound 20] | ++++ (>75% = ++++)
21 (AVRKPIVLK; listed as Homo sapiens) [compound 21] | +++ (>50 = +++)
259 (KTLELRVAY; listed as Homo sapiens) [compound 259] | ++ (>20% = ++)
104 (VLADSVTTK; listed as Homo sapiens) [compound 104] | ++ (>20% = ++)
102 (SVLTSSLVK; listed as Homo sapiens) [compound 102] | ++ (>20% = ++)
28 (KTYETNLEIKK; listed as Homo sapiens) [compound 28] | +++ (>50 = +++)
273 (RVNAIPFTY; listed as Homo sapiens) [compound 273] | +++ (>50 = +++)
26 (RISEYLLEK; listed as Homo sapiens) [compound 26] | ++ (>20% = ++)
87 (AVAPPTPASK; listed as Homo sapiens) [compound 87] | ++ (>20% = ++)
287 (RRIHTGEKPYK; listed as Homo sapiens) [compound 287] | ++ (>20% = ++)
272 (RQPERTILRPR; listed as Homo sapiens) [compound 272] | ++ (>20% = ++)
30 (ALEVAHRLK; listed as Homo sapiens) [compound 30] | ++ (>20% = ++)
83 (GTYAHTVNR; listed as Homo sapiens) [compound 83] | +++ (>50 = +++)
84 (KLQPAQTAAK; listed as Homo sapiens) [compound 84] | ++ (>20% = ++)
94 (ATFERVLLR; listed as Homo sapiens) [compound 94] | +++ (>50 = +++)
284 (KSLIKSWKK; listed as Homo sapiens) [compound 284] | ++ (>20% = ++)
99 (KVVDRWNEK; listed as Homo sapiens) [compound 99] | ++ (>20% = ++)

Substance | Peptide exchange
263 (SSSSATISK; listed as Homo sapiens) [compound 263] | ++ (>20% = ++)
264 (AIKVIPTVFK; listed as Homo sapiens) [compound 264] | ++ (>20% = ++)
90 (KVAGERYVYK; listed as Homo sapiens) [compound 90] | +++ (>50 = +++)
276 (VSKTTGMEF; listed as Homo sapiens) [compound 276] | + (>10% = +)
267 (VTDLISPRK; listed as Homo sapiens) [compound 267] | ++ (>20% = ++)
257 (VTADHSHVF; listed as Homo sapiens) [compound 257] | + (>10% = +)
256 (RTEEVLLTFK; listed as Homo sapiens) [compound 256] | ++ (>20% = ++)
23 (GMMKGGIRK; listed as Homo sapiens) [compound 23] | +++ (>50 = +++)
95 (QSMYYPLQLK; listed as Homo sapiens) [compound 95] | ++ (>20% = ++)
24 (SMYYPLQLK; listed as Homo sapiens) [compound 24] | +++ (>50 = +++)
286 (TVAPPQGVVK; listed as Homo sapiens) [compound 286] | ++ (>20% = ++)
22 (SLKERNPLK; listed as Homo sapiens) [compound 22] | ++ (>20% = ++)
269 (RLKGDAWVYK; listed as Homo sapiens) [compound 269] | +++ (>50 = +++)
85 (VLLGSLFSRK; listed as Homo sapiens) [compound 85] | ++ (>20% = ++)
260 (GTNTVILEY; listed as Homo sapiens) [compound 260] | +++ (>50 = +++)
107 (RLQEWKALK; listed as Homo sapiens) [compound 107] | +++ (>50 = +++)
271 (RMFADDLHNLNK; listed as Homo sapiens) [compound 271] | +++ (>50 = +++)
101 (RVFTSSIKTK; listed as Homo sapiens) [compound 101] | ++ (>20% = ++)
98 (LLQPPPLLAR; listed as Homo sapiens) [compound 98] | ++ (>20% = ++)
285 (GTVNPTVGK; listed as Homo sapiens) [compound 285] | ++ (>20% = ++)
261 (HTFGLFYQR; listed as Homo sapiens) [compound 261] | ++ (>20% = ++)

Each substance was assayed against HLA-B*44:02 (Homo sapiens, UniProt P01889, A223V/A65T/A93T/A95T/D201E/D98Y/E176V/E187L/E204Q/E69K/G107R/H137Y/K202T/L105A/L119I/N104T/N87E/Q56L/Q94N/R106L/R155S/R180D/S101N/S121R/S35A/S48T/T118I/V36M/W191S/Y140D/Y91S) in the same assay as above. Conditions: peptide exchange yield.
In short: as §1

Substance | Peptide exchange
173 (AEAQVGDERDY; listed as Homo sapiens) [compound 173] | “+++” (>50 = +++)
403 (EEAQWVRKY; listed as Homo sapiens) [compound 403] | “++” (>20% = ++)
404 (NEAIMHQY; listed as Homo sapiens) [compound 404] | “++” (>20% = ++)
196 (REMPGGPVW; listed as Homo sapiens) [compound 196] | “+++” (>50 = +++)
416 (SEEETRVVF; listed as Homo sapiens) [compound 416] | “+++” (>50 = +++)
186 (REGPEEPGL; listed as Homo sapiens) [compound 186] | “++” (>20% = ++)
188 (AEFAKKQPWW; listed as Homo sapiens) [compound 188] | “+++” (>50 = +++)
408 (LEKALQVF; listed as Homo sapiens) [compound 408] | “++” (>20% = ++)
400 (GEIEIHLL; listed as Homo sapiens) [compound 400] | “+” (>10% = +)
197 (AEVLLPRLV; listed as Homo sapiens) [compound 197] | “+++” (>50 = +++)
212 (MEQKQLQKRF; listed as Homo sapiens) [compound 212] | “+++” (>50 = +++)
433 (SDSQVRAF; listed as Homo sapiens) [compound 433] | “+” (>10% = +)
200 (AESIPTVSF; listed as Homo sapiens) [compound 200] | “+++” (>50 = +++)
431 (AEQDPDELNKA; listed as Homo sapiens) [compound 431] | “++” (>20% = ++)
397 (REGDTVQLL; listed as Homo sapiens) [compound 397] | “++” (>20% = ++)
